The record followed here is the nanobody polyreactivity screen of Harvey et al. (2022).

The data set in a line: yeast display, Sf9 membrane polyspecificity reagent, FACS + sequencing; frameworks hold sequencing errors. In a few lines:
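After 36–48 hours of galactose induction, yeast (Saccharomyces cerevisiae BJ5465) displaying a synthetic nanobody library were stained at 4 °C for 1 hour with 10% biotinylated, detergent-solubilized Sf9 membrane reagent. Streptavidin microbeads enriched the stained cells before FACS sorting into low and high (top ~1%) gates on anti-HA and streptavidin fluorescence. Each clone's polyreactivity label reflects its gate of origin.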
Regarding “QVQLVESGGGLVQAGGSLRLSCAASGSTFFRYAMGWYRQAPGKERELVAAITSGGNTYYADSVKGRFTISRDNAKNTVYLQMNSLKPEDSAVYYCAADVYHWIHEYDYWGQGTQVTVSS”, the “polyreactivity (PSR sort gate)” value is given as “low polyreactivity”.

For “QVQLVDSGGGLVQAGGSLRLSCAASGRTFSLYAMGWYRQAPGKERELVATISQSGGSTYYADSVKGRFTISRDNAKNTVYLQMNSQKPEDTAVYNCAAGGIYLDYFGQGTQVTVSS”, the “polyreactivity (PSR sort gate)” value was “low polyreactivity”.

In the case of “QVQLVESGGGLVQAGGSLRLSCAASGSIFEYNGMGWYRQAPGKERELVAAITTTGTTDYADSVKGRFTISRDNAKNTVYLQMNSLKPEDTAVYYCAADYTYYYKGEYDYWGQGTQVTVSS”, the “polyreactivity (PSR sort gate)” value is “low polyreactivity”.

With “QVQLVESGGGLVQAGGSLRLSCAASGRTFWYYAMGWYRQAPGKERELVAASTYRGGSTYYADSVKGRFTISRDNVKNTVYLQMNSLKPEDTAVYYCAAPYGEDYWRQGTQVTVSS”, the “polyreactivity (PSR sort gate)” value is on record as “high polyreactivity”.

With “QDQLVESGGGLVQAGGSLRLSCAASGITFYGYAMGWYRQAPGKERELVAAISESGGSTYYADSVKGRFTISRDNAKNTVYLQMNSLKPEDTAVYYCAAQGYSVYCYSNYWGQGTQVTVSS”, the “polyreactivity (PSR sort gate)” value is on record as “low polyreactivity”.

As to “QVQLVESGGGLVQAGGSLRLSCAASGSIFTYYAMGWYRQAPGKEMELVARIDWNGGSTRYADSVKGRFTISRDNAKNTVYLQMNSLKPEYTAVYYCAADWDYAPYFDPDLLDYWGQGTQVTVSS”, the “polyreactivity (PSR sort gate)” value is given as “low polyreactivity”.

In the case of “QVQLVESGGGLVQAGGSLRLSCAASGFIFLDYAMGWYRQAPGKERELVAAISRSGGSTYYADSVKGRFTISRDYAKNTVYLQMNSLKPEDTAVYYCAAAFYGGGTWDSYWGQGTQVTVSS”, the “polyreactivity (PSR sort gate)” value was “high polyreactivity”.

On to “QVQLVESGGVLVQAGGSLRLSCAASGSTIRLYAMGWYRQAPGKERELVAAIRSGGNTNYADSVKGRFTISRDNAKNSVYLQMKSLKREDTAVYYCNGFCAQLPVPNYDYWGQGPQVTVSS”, for which the “polyreactivity (PSR sort gate)” value is “high polyreactivity”.

Consider “QVQLVESGGGLVQAGGSLRLSCAASGFTFWTYARGWYRQAPGKERELVAAIDSGGSTYYADSVKGRFTISRDNAKNTVYLQMNSLKPEDTAVYYCNAGPSVTSGYDYDYWGQGTQVTVSS”, for which the “polyreactivity (PSR sort gate)” value is “low polyreactivity”.

On to “QVQLVESGGGLVQAGGSLRLSCAASGFIFYSYVMGWSRQAPGKERELVAAISRSGGSTYYADSVKGRFTISRDNAKNTVYLQMNSLKPEDTAVYYCAVDGISGTSYGEGDEYWGQGTQVTVSS”, for which the “polyreactivity (PSR sort gate)” value is “high polyreactivity”.

For the sequence “QVHLVESGGGLVQAGGSLRLSCAASGFTFNRYAMGWYRQAPGKERELVATISSGGNTNYADSVKGRFTISRDNAKKTVYLQMNSLKPEDTAVYYCNADRWFHYYSYNYWGQGTQVTVSS”, the “polyreactivity (PSR sort gate)” value is reported as “high polyreactivity”.

“QVQLVESGGGLVQAGGSLRLSCAASGSIFYYYAMGWYRQAPGKERELVAAITYSGGSTHYADSVKGRFTISRDNAKNTVYLQMNSLKPDDTAVFYCAVYYRSHSGSRIYYWGQGTQVTVSS”: the “polyreactivity (PSR sort gate)” value is given as “high polyreactivity”.

Turning to “QVQLVESGGGLVQAGGSLRLSCAASGSTFLYYTMGWYRPAPGKERELVAAITSGGDTNYPDSVKGRFTISRDNAKNTVYLQMNSLKPEDTAVYYCNAEYTLSGTKIYTYKYDYRGQGTQVTVSS”, the “polyreactivity (PSR sort gate)” value is “low polyreactivity”.

For the sequence “QVQLVESGGGLVQGGGSLGLSCAASGRIFPVNAMGWYRQAPGKERELVAAISTTGARTYYADSVKGRFTISRDNAKNTVYLQMNSLKPEDTAVYYCAAKQFSVTLSNYWGQGTQVTVSS”, the “polyreactivity (PSR sort gate)” value was “low polyreactivity”.

As to “QVQLVETGGGLVQAGGSLRLSCAASAFTFASYAMGWYRQAPGKEREFVAAITRSGGSTYYADSVKGRFTISRDNAKNTVYLQMNSLKPEDTAVYYGAAQYHGGISQRLYYWGQGTQVTVSS”, the “polyreactivity (PSR sort gate)” value is given as “high polyreactivity”.

Take “QVQLVESGGGLVQAGGSLRLSCAASGRIFHGNAMGWYRQAPGKERELVAAITSGGRTFYADSVKGRFTISRDNAKNTVYLQMNSLKPEDTAVYYCNAPSIAGYAEYNSHDYWGQGTQVTVSS”: the “polyreactivity (PSR sort gate)” value is listed as “high polyreactivity”.

Regarding “QVQLVESGGGLVQAGGSLRLSCAASGLTFSVYAMGWYRPAPGKERELVAAISGSGGSTYYADSVKGRFTISRDNAKNTVYLQMNSLKPEDTAVYYCAARYDVHYDGMDYWGQGTQVTLSS”, the “polyreactivity (PSR sort gate)” value is “low polyreactivity”.

Take “QVQLVESGGGLVQAGGSLRLSCAASGSIFLEYAMGWYRQAPGKERELVAAISSSGGSTYYADSVKGRFTISRDNAKNTVYLQMNSLKPEDTAVYYCAAGKSKYGVRGYYWGQGTQVTVSS”: the “polyreactivity (PSR sort gate)” value is reported as “high polyreactivity”.

Consider “QVQLQESGGGLVQAGGSLRLSCAASGSIFYWPWMGWYRQAPGREREFVATITTGSNTYYADIMKGHLTISRDNARNTVYLQMKSLKPEDTAVYYCAVVGDGEIEHRYWGQGTQVTVSS”, for which the “polyreactivity (PSR sort gate)” value is listed as “high polyreactivity”.

On to “QDQLVESGGGLVQARGSLRLSCAASGSIYSRNALGWYRQAPGKERELVAAITYRGGNTYYADSVKGRFTISRDNANNNLYLQMNSLKPEDTAVYYCAADTYGWLYAFEYWGQGTQVTVSS”, for which the “polyreactivity (PSR sort gate)” value is listed as “low polyreactivity”.

With “QVQLVESGGGLVQAGGSLRLSCGASGLTFAYYAMRWYRQAPGKERELVAAISSSGRSTYYADSVKGRFTISRDNAKNTVYLQMNSLTEEDTAVSYCDKVGPWYYWERDYWGQCTQVTVSS”, the “polyreactivity (PSR sort gate)” value is given as “high polyreactivity”.

For the sequence “QVQLVESGGGLVQAGGSLRLSCAASGITLYSYAMGWYRPAPGKERELVAAISWDGGGTYYADSVKGRFTISRDNAKNTVYLQMNSLKPEDTAVYYCAADTQYTDGDSWGQGTQVTVSS”, the “polyreactivity (PSR sort gate)” value is “high polyreactivity”.

On to “QVQLVESGGGLVQAGGSLRLSCAASGSIFTLYAMGWYRQAPGKETELVAVISSSGGRTYYADSVKGRFTISRDNAKNTVYLQMNSLKPEDTAVYYGAARGYGATYDYWGQGTQVTVSS”, for which the “polyreactivity (PSR sort gate)” value is listed as “high polyreactivity”.

As to “QVQLVESGGGLVQAGGSLRISCAASGSICYYYGMGWYRQAPGKERELVAGISSRGGRTYYADSVKGRFTISRDNAKNTVYLQMNSLKPEDTAVYYGAADRYYYAYRYDPSGYWGQGTQVTVSS”, the “polyreactivity (PSR sort gate)” value was “low polyreactivity”.

“QVQLVESGGGLVQAGGILRLSCAASGRSFDRNAMGWYRQAPGKERELVATISSGDTTDYADSVKGRFTISRDNATNTVYLQMNSLKPEDTAGYYITIYNYWGQGTQVTVSS”: the “polyreactivity (PSR sort gate)” value is listed as “low polyreactivity”.

In the case of “QVQLVESGGGLVQAGGSLRLSCAASGRIYSQYDMGWYRQAPGKESELVAAISGGVGTNYADSVKGRFTISRDNAKNTVYLQMNSLKPEDSAVYYCAADVGYLGRSRGYPSDDYDYWGQGTQVTVSS”, the “polyreactivity (PSR sort gate)” value was “low polyreactivity”.

Turning to “QVQLVESGGGLVQAGGSLRLSCAASGRIFYTYVMGWYRQAPGKERELVAAITRRGGSTNYADSVKGRFTISRDNAKNTVYLQMNSLKPEDTAVYYCAAGTYKGSSVYGMDYWGQGTQVTVSS”, the “polyreactivity (PSR sort gate)” value is reported as “high polyreactivity”.

Consider “QVQLVESGGGLVQAGGSLRVTCAASGNIFGYYAMGWYRQAPGKERELDAAISSGGTTSYADSVKGRFTISRDNAKNTVYLQLNSLKPEDTAVYYCAARDWYDGFYYWGQGTQVTVSS”, for which the “polyreactivity (PSR sort gate)” value is “low polyreactivity”.

Turning to “QVQLVESGGGLVQAGGSLRLSCAASGITFIYYDMGWYRQAPGKEREFVAAINYRGTSTYYADSVKGRFTISRDNAKNTVYLQMNSLKPEDTAVYYCAARLRQTGGDRLGYWGQGTQVTVSS”, the “polyreactivity (PSR sort gate)” value is “high polyreactivity”.

Regarding “QVQLVESGGGLVQAGGSLRLSCAASGFIFVYYVMGWYRQAPGKERELVAAITQSGGSTYYADSVKGRFTISRDNAKYTVYLQMNSLKPEDTAVYYCAAYRRTTGGGYDYWGQGTQVTVSS”, the “polyreactivity (PSR sort gate)” value is “high polyreactivity”.

In the case of “QVQLVESGGGLVQAGGSLRLSCAASGLIFVVYAMGWYRPAPGKERELVADISSGGRTSYADSVKGRFTISRDNAKNTVYLQMNSLKPEDTAVYYCNAYPVFNQYYGWRYDYWGQGTQVTVSS”, the “polyreactivity (PSR sort gate)” value was “low polyreactivity”.

In the case of “QVQLVESGGGLVQAGGSLRLSCAASGSILSYYTMGWYRQAPGKERELVAAISAGGGSTYYADSVKGRFTISRDNAKNTVYLQMNSLKPEDTAVYYCASGFSRRWQYNYWGQGTQVTVSS”, the “polyreactivity (PSR sort gate)” value is given as “high polyreactivity”.

Regarding “QVQLVESGGGLVQAGGSLRLSCADSGLIFRHYAMGWYRQAPGKERELVASISYRGGSTYYADSVKGRFTISRDNPKNTVYLQMNSLKPEDTAVDYCAADTYYPTYWSVTYGYDYWGQGTQVTVSS”, the “polyreactivity (PSR sort gate)” value is “low polyreactivity”.

For the sequence “QVQLVESGGGLVQAGGSLRLSCAASGRIFENNAMGWYRQAPGKERELVAAITSSGGRTYYADSVKGRFTISRDNAKNTVYLQMNSLIPEDTAVYYCNAYQYYERYDTYLFRYDYWGQGTQVTVSS”, the “polyreactivity (PSR sort gate)” value was “low polyreactivity”.

Turning to “QVQLVESGGGLVQAGGSHRLSCAASGRTFGYNAMGWYRQAPGKERELVAAISRSGGRTYYADSVKGRFTISRDNAKNTVYLHMNRLKPEDTAVYYCAAESYHRGYDYWGQGTQVTVSS”, the “polyreactivity (PSR sort gate)” value was “high polyreactivity”.

For the sequence “QVQLVESGGGLVQAGGSLRLSCAASGSIFPGYAMGWYRPAPGKDRELVATIPWSGGSTYYADSVKGRFTISRDNENNTVYLQMNSLKPEDTAVYYCYADSYWYYQWYYYGLYDYWGAGTQVTVSS”, the “polyreactivity (PSR sort gate)” value is reported as “low polyreactivity”.

Regarding “QVQLVESGGGLVQAGGSLRLSCAASGSTFTRNAMGWYRQAPGKEWELVAAITSSGGSTYYAASVKGRFTISRDNAKNTVYLQMNSLKPEDNAVYYCAAYPHRPRDPELDHWGQGTQVTVSS”, the “polyreactivity (PSR sort gate)” value is on record as “low polyreactivity”.

As to “QVQLVESGGGLVQAGGSLRLSCAASGFTLDYYAMGWYRKAPGKERELVAAISFSGGSTYYADSVKGRFTISRDNAKNTVYLQMNSLKPEDTAVYFCAADPQIVWYDYWGQGTQVTVSS”, the “polyreactivity (PSR sort gate)” value was “low polyreactivity”.

With “QVQLVESGGGLVQAGGSLRVSCAASGRTFRYYEMGWYRQAPGKERELVAAISWSGGSTYYADSVKGRFTISRDNAKNSVYLQMNSLKPEDTAVYYCGAPKPIYSYPTYYYWGQGTQVTVSS”, the “polyreactivity (PSR sort gate)” value is listed as “high polyreactivity”.

On to “QVQLVESGGGLVQAVGSLRLSCADSGTFPYYAMGRYRQAPWKERELVAAITRSGTRTYYADSVKGRFTISRDNAKNTGYLQMKSLKPEDTAVYYCAARQTGFSSQFRGYYSWGQGTQVTVSS”, for which the “polyreactivity (PSR sort gate)” value is recorded as “high polyreactivity”.

As for “QVQLVESGGGLVQAGGRLRLSCAASGSTSLYYAMGWYRQAPGKEREFVAAITWSGGSTYYADSGKGRFTITRDNAKNTVYLQMNSLKPEDTAVYYCAGRSYGYSAGYYWGQGTQVTVSS”, the “polyreactivity (PSR sort gate)” value is on record as “high polyreactivity”.
